Measurements taken from patent US10941182 (Amgen, dated 2021).
Like-named read-outs stand apart in the source and are kept apart here. Non-standard residues stand in square brackets, D forms with d. *: point of attachment. Oic = O=C(O)[C@@H]1C[C@@H]2CCCC[C@@H]2N1; Phe(4-Cl) = N[C@@H](Cc1ccc(Cl)cc1)C(=O)O; NMeR = CN[C@@H](CCCNC(=N)N)C(=O)O; Tridecanoyl = CCCCCCCCCCCCC(=O)*; Cha = N[C@@H](CC1CCCCC1)C(=O)O; Nle = CCCC[C@H](N)C(=O)O; AEEA = NCCOCCOCC(=O)O; Aib = CC(C)(N)C(=O)O

How the values were obtained:
Assay in all cases: cell-based or functional assay
rat APJ receptor [1] = molecular target: T1, rat APJ receptor (rat, UniProt Q9JHG3 1-377)
T1 sequence (looked up): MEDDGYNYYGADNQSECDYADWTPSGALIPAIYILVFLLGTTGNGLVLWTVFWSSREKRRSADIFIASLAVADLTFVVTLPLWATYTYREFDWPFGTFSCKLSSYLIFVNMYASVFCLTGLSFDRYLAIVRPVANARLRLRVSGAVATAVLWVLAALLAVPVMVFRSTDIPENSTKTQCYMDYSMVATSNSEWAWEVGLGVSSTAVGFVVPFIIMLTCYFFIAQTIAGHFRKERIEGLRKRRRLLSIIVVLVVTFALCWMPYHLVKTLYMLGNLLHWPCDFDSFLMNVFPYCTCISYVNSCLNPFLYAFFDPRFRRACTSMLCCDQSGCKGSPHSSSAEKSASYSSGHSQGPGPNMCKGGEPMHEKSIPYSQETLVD

human APJ receptor [2] = molecular target: T2, human APJ receptor (human, UniProt P35414 1-380)
T2 sequence (looked up): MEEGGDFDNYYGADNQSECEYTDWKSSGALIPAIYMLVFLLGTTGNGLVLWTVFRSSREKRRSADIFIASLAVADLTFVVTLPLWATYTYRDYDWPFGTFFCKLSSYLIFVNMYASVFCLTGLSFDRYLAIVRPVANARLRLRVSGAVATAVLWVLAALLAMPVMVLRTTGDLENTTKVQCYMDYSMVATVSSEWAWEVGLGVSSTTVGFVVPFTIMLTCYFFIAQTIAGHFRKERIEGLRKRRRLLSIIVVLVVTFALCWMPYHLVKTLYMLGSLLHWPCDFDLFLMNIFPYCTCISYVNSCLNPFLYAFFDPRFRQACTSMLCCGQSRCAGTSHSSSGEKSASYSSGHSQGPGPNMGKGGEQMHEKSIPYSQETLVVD

rat APJ receptor [3] = molecular target: T1, rat APJ receptor; remark: listed apart in the source
human APJ receptor [4] = molecular target: T2, human APJ receptor; remark: listed apart in the source

| Binder | EC50 Rat APJ Receptor (µM), GTPγS assay (rat APJ receptor [1]) | EC50 Human APJ Receptor (µM), GTPγS assay (human APJ receptor [2]) | EC50 Rat APJ Receptor (µM), GTPγS assay (rat APJ receptor [3]) | EC50 Human APJ Receptor (µM), GTPγS assay (human APJ receptor [4]) |
| --- | --- | --- | --- | --- |
| Tridecanoyl-[dD][AEEA][AEEA][dQ]RP[NMeR][Cha]SHKG[Oic][Nle][Aib][Phe(4-Cl)]-OH (SMILES CCCCCCCCCCCCC(=O)N[C@H](CC(=O)O)C(=O)NCCOCCOCC(=O)NCCOCCOCC(=O)N[C@H](CCC(N)=O)C(=O)N[C@@H](CCCNC(=N)N)C(=O)N1CCC[C@H]1C(=O)N(C)[C@@H](CCCNC(=N)N)C(=O)N[C@@H](CC1CCCCC1)C(=O)N[C@@H](CO)C(=O)N[C@@H](Cc1c[nH]cn1)C(=O)N[C@@H](CCCCN)C(=O)NCC(=O)N1[C@H](C(=O)N[C@@H](CCCC)C(=O)NC(C)(C)C(=O)N[C@@H](Cc2ccc(Cl)cc2)C(=O)O)C[C@@H]2CCCC[C@@H]21) [modified apelin polypeptide SEQ ID NO: 538] | 0.00189 µM | 0.000525 µM | – | – |
| Ac-QRP[NMeR][Cha]SHKG[Oic][Nle][Aib][Phe(4-Cl)]-OH [Acetylated version of peptide in Fc-peptide conjugate #4 (SEQ ID NO: 92)] | – | – | 0.00323 µM | 0.000679 µM |
| Tridecanoyl-[dE][AEEA][AEEA][dQ]RP[NMeR][Cha]SHKG[Oic][Nle][Aib][Phe(4-Cl)]-OH (SMILES CCCCCCCCCCCCC(=O)N[C@H](CCC(=O)O)C(=O)NCCOCCOCC(=O)NCCOCCOCC(=O)N[C@H](CCC(N)=O)C(=O)N[C@@H](CCCNC(=N)N)C(=O)N1CCC[C@H]1C(=O)N(C)[C@@H](CCCNC(=N)N)C(=O)N[C@@H](CC1CCCCC1)C(=O)N[C@@H](CO)C(=O)N[C@@H](Cc1c[nH]cn1)C(=O)N[C@@H](CCCCN)C(=O)NCC(=O)N1[C@H](C(=O)N[C@@H](CCCC)C(=O)NC(C)(C)C(=O)N[C@@H](Cc2ccc(Cl)cc2)C(=O)O)C[C@@H]2CCCC[C@@H]21) [modified apelin polypeptide SEQ ID NO: 547] | 0.00133 µM | 0.000404 µM | – | – |
| QRPRLSHKGPXPF ({Acetyl-NH}Q[NMehArg]P[NMeArg][aMeLeu]SHKGP[Nle]P[4-Cl-F]{COOH: N-terminal acetyl; NMehArg, NMeArg, aMeLeu, Nle, 4-Cl-F non-canonical; free C-terminal acid) [Acetylated version of peptide in Fc-peptide conjugate #3 (SEQ ID NO: 95)] | – | – | 0.00393 µM | – |
| Tridecanoyl-E[AEEA][AEEA][dQ]RP[NMeR][Cha]SHKG[Oic][Nle][Aib][Phe(4-Cl)]-OH (SMILES CCCCCCCCCCCCC(=O)N[C@@H](CCC(=O)O)C(=O)NCCOCCOCC(=O)NCCOCCOCC(=O)N[C@H](CCC(N)=O)C(=O)N[C@@H](CCCNC(=N)N)C(=O)N1CCC[C@H]1C(=O)N(C)[C@@H](CCCNC(=N)N)C(=O)N[C@@H](CC1CCCCC1)C(=O)N[C@@H](CO)C(=O)N[C@@H](Cc1c[nH]cn1)C(=O)N[C@@H](CCCCN)C(=O)NCC(=O)N1[C@H](C(=O)N[C@@H](CCCC)C(=O)NC(C)(C)C(=O)N[C@@H](Cc2ccc(Cl)cc2)C(=O)O)C[C@@H]2CCCC[C@@H]21) [modified apelin polypeptide SEQ ID NO: 537] | 0.00108 µM | 0.00028 µM | – | – |
| Tridecanoyl-D[AEEA][AEEA][dQ]RP[NMeR][Cha]SHKG[Oic][Nle][Aib][Phe(4-Cl)]-OH [modified apelin polypeptide SEQ ID NO: 546] | 0.00123 µM | 0.000478 µM | – | – |
| QRPRLSHKGPXPF ({Acetyl-NH}Q[r]P[hArg][aMeLeu]SHKGP[Nle] P[4-Cl-F]{COOH}: N-terminal acetyl; r = D-Arg; hArg, aMeLeu, Nle, 4-Cl-F non-canonical; free C-terminal acid) [Acetylated version of peptide in Fc-peptide conjugate #1 (SEQ ID NO: 70)] | – | – | 0.00974 µM | – |
